In publication PMC3217859, “Protein phosphatase 2a (PP2A) binds within the oligomerization domain of striatin and regulates the phosphorylation and activation of the mammalian Ste20-Like kinase Mst3” (BMC Biochemistry, 2011):

Legend:
Assay in all cases: co-IP; anti-HA immunoprecipitates (12CA5 with protein A-Sepharose, or F7 anti-HA-agarose when probing for Mst3 or Mst4; 1.5 h, 4°C) of lysates (1% Nonidet P-40, 0.135 M NaCl, 10% glycerol, 20 mM Tris pH 8.0) of HEK293 cells transfected with HA-striatins; endogenous partners by immunoblot, partner/HA-striatin ratio by chemilumimager against wild type; 50 mM NaF and 100 nM okadaic acid in the lysis buffer in the …
Settings in all cases: partners not purified
[1] = target: T1, HA-tagged Δ(227-309) striatin (human, UniProt O43815 1-780, Δ(227-309))
T1 construct: source: HEK293, transfected, in lysate; not shown: HA, N-terminal, kept
T1 sequence (looked up): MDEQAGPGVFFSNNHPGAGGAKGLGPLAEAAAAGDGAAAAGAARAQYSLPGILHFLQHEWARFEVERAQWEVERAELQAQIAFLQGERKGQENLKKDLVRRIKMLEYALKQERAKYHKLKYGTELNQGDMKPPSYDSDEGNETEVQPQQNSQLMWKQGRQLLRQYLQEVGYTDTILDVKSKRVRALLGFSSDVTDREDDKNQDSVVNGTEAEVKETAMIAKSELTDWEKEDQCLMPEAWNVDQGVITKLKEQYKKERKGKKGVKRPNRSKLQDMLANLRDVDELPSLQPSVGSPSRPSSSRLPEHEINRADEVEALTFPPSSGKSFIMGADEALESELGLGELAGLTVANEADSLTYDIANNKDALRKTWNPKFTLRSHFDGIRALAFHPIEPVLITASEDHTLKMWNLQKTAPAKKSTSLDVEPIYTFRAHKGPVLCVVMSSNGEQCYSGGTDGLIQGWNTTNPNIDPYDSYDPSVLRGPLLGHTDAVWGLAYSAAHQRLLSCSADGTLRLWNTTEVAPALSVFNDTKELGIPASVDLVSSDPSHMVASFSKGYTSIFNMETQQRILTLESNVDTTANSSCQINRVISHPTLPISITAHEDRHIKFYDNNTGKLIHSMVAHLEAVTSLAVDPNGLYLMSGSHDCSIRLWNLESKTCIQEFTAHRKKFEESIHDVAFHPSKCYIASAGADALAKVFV

[2] = target: T2, HA-tagged K270Stop striatin (human, UniProt O43815 1-269)
T2 construct: striatin, human, C-terminal truncation by a stop codon at K270; source: HEK293, transfected, in lysate; not shown: HA, N-terminal, kept
T2 sequence (looked up): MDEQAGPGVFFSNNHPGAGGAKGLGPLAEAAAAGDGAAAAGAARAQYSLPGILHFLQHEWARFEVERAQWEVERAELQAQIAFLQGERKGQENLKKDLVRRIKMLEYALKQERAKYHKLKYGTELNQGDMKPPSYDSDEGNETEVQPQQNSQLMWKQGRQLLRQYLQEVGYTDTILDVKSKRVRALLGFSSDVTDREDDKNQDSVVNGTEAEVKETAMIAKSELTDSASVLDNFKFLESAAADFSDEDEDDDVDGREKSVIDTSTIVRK

[3] = target: T3, HA-tagged F457Stop striatin (human, UniProt O43815 1-456)
T3 construct: striatin, human, C-terminal truncation by a stop codon at F457 (loss of seven of eight WD-repeats); residues 1-456 by the mutant's name; source: HEK293, transfected, in lysate; not shown: HA, N-terminal, kept
T3 sequence (looked up): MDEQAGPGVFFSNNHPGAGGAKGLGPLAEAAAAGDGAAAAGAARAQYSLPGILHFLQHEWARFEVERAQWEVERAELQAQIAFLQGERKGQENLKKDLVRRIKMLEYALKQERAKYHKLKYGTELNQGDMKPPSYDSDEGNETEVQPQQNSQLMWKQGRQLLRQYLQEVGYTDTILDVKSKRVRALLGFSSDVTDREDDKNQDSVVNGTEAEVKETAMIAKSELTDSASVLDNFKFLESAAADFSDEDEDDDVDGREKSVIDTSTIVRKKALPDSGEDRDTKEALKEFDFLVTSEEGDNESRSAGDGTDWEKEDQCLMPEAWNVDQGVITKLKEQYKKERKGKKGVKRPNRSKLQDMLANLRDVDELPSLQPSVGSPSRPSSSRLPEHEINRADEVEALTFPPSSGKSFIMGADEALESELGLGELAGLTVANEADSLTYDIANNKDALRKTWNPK

[4] = target: T4, HA-tagged Δ(3-309) striatin (human, UniProt O43815 1-780, Δ(3-309))
T4 construct: source: HEK293, transfected, in lysate; not shown: HA, N-terminal, kept
T4 sequence (looked up): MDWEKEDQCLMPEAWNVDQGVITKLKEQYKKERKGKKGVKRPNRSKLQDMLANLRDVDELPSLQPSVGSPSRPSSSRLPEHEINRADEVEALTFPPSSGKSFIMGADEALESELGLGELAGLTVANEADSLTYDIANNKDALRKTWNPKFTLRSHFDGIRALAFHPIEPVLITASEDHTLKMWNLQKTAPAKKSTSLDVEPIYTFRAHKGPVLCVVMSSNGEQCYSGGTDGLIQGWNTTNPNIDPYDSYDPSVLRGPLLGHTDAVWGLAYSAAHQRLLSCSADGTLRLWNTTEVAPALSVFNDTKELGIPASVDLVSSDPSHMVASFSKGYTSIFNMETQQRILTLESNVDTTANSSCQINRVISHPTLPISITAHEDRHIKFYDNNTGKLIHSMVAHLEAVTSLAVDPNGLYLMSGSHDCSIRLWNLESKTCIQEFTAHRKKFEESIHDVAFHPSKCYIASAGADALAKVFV

B1: Mob3/phocein (natural protein, human (endogenous in HEK293), UniProt Q9Y3A3 1-225, looked up)
chain: MVMAEGTAVLRRNRPGTKAQDFYNWPDESFDEMDSTLAVQQYIQQNIRADCSNIDKILEPPEGQDEGVWKYEHLRQFCLELNGLAVKLQSECHPDTCTQMTATEQWIFLCAAHKTPKECPAIDYTRHTLDGAACLLNSNKYFPSRVSIKESSVAKLGSVCRRIYRIFSHAYFHHRQIFDEYENETFLCHRFTKFVMKYNLMSKDNLIVPILEEEVQNSVSGESEA
notes: source: endogenous, HEK293 lysate
- percent of the wild-type level bound [1]: 75 % of wild-type levels
- percent reduction in binding against wild-type striatin [2]: 45%
- percent reduction in binding against wild-type striatin [3]: 29%
- percent of the wild-type level bound [4]: ~40 % of wild-type level
